# From the RNAGym collection of RNA variant scans (doi:10.7554/elife.80360)
# B1: Twister Ribozyme (parent)
# chain: AACACUGCCAAUGCCGGUCCCAAGCCCGGAUAAAAGUGGAGGGGGCGG
# Variants of: B1
# Test: self-cleavage, relative activity (ratio to wild type); higher = more cleavage; co-transcriptional
row,Variant,self-cleavage
1,AACACUGCCAAGGCCGGUCCCAAGGCCGGAUAAAAGUGGAGGGGGCGG,0.486
2,AACACUGCCAAGGCCGGUCCCAAGCACGGAUAAAAGUGGAGGGGGCGG,0.589
3,AACACUGCCAAGGCCGGUCCCAAGCCAGGAUAAAAGUGGAGGGGGCGG,0.373
4,AACACUGCCAAGGCCGGUCCCAAGCCGGGAUAAAAGUGGAGGGGGCGG,0.136
5,AACACUGCCAAGGCCGGUCCCAAGCCUGGAUAAAAGUGGAGGGGGCGG,0.496
6,AACACUGCCAAGGCCGGUCCCAAGCCCGGAUAAAAGUGGAGGGGGGGG,0.757
7,AACACUGCCAAGGCCAGUCCCAAGCCCGGAUAAAAGUGGAGGGGGCGG,0.864
8,AACACUGCCAAGGCCUGUCCCAAGCCCGGAUAAAAGUGGAGGGGGCGG,0.937
9,AACACUGCCAAGGCCGUUCCCAAGCCCGGAUAAAAGUGGAGGGGGCGG,0.239
10,AACACUGCCAAGGCCGGUCCCAAACCCGGAUAAAAGUGGAGGGGGCGG,0.177
11,AACACUGCCAAGGCCGGUCCCAACCCCGGAUAAAAGUGGAGGGGGCGG,0.0924
12,AACACUGCCAAGGCCGGUCCCAAGCCCAGAUAAAAGUGGAGGGGGCGG,0.799
13,AACACUGCCAAGGCCGGUCCCAAGCCCUGAUAAAAGUGGAGGGGGCGG,0.464
14,AACACUGCCAAGGCCGGUCCCAAGCCCGAAUAAAAGUGGAGGGGGCGG,0.622
15,AACACUGCCAAGGCCGGUCCCAAGCCCGCAUAAAAGUGGAGGGGGCGG,0.677
16,AACACUGCCAAGGCCGGUCCCAAGCCCGGAUAAAAAUGGAGGGGGCGG,0.64
17,AACACUGCCAAGGCCGGUCCCAAGCCCGGAUAAAACUGGAGGGGGCGG,0.475
18,AACACUGCCAAGGCCGGUCCCAAGCCCGGAUAAAAUUGGAGGGGGCGG,0.397
19,AACACUGCCAAGGCCGGUCCCAAGCCCGGAUAAAAGUCGAGGGGGCGG,0.881
20,AACACUGCCAAGGCCGGUCCCAAGCCCGGAUAAAAGUUGAGGGGGCGG,0.76
21,AACACUGCCAAGGCCGGUCCCAAGCCCGGAUAAAAGUGGAGCGGGCGG,0.369
22,AACACUGCCAAGGCCGGUCCCAAGCCCGGAUAAAAGUGGAGGAGGCGG,0.399

row,Variant,self-cleavage
1,AACACUGCCAAGGCCGGUCCCAAGCCCGGAUAAAAGUGGAGGGAGCGG,0.784
2,AACACUGCCAAGGCCGGUCCCAAGCCCGGAUAAAAGUGGAGGGCGCGG,0.681
3,AACACUGCCAAGGCCGGUCCCAAGCCCGGAUAAAAGUGGAGGGUGCGG,0.799
4,AACACUGCCAAGGCCGGUCCCAAGCCCGGAUAAAAGUGGAGGGGACGG,0.583
5,AACACUGCCAAGGCCGGUCCCAAGCCCGGAUAAAAGUGGAGGGGGCAG,0.772
6,AACACUGCCAAGGCCGGUCCCAAGCCCGGAUAAAAGUGGAGGGGGCUG,0.703
7,AACACUGCCAAGGCCGGUCCCAAGCCCGGAUAAAAGUGGAGGGGGCGA,0.593
8,AACACUGCCAAGGCCGGUCCCAAGCCCGGAUAAAAGUGGAGGGGGCGC,0.929
9,AACACUGCCAAGGCCGGGCCCAAGCCCGGAUAAAAGUGGAGGGGGCGG,0.0252
10,AACACUGCCAAGGCCGGUCCCAAGCCCGGAUAAAAGAGGAGGGGGCGG,0.576
11,AACACUGCCAAUACCGGUCCCGAGCCCGGAUAAAAGUGGAGGGGGCGG,0.107
12,AACACUGCCAAUACCGGUCCCAGGCCCGGAUAAAAGUGGAGGGGGCGG,0.0799
13,AACACUGCCAAUACCGGUCCCAUGCCCGGAUAAAAGUGGAGGGGGCGG,0.0933
14,AACACUGCCAAUACCGGUCCCAAGCCCGGCUAAAAGUGGAGGGGGCGG,0.771
15,AACACUGCCAAUACCGGUCCCAAGCCCGGUUAAAAGUGGAGGGGGCGG,0.899
16,AACACUGCCAAUACCGGUCCCAAGCCCGGAUGAAAGUGGAGGGGGCGG,0.882
17,AACACUGCCAAUACCGGUCCCAAGCCCGGAUUAAAGUGGAGGGGGCGG,0.961
18,AACACUGCCAAUACCGGUCCCAAGCCCGGAUAUAAGUGGAGGGGGCGG,1.01
19,AACACUGCCAAUACCGGUCCCAAGCCCGGAUAACAGUGGAGGGGGCGG,0.173
20,AACACUGCCAAUACCGGUCCCAAGCCCGGAUAAGAGUGGAGGGGGCGG,0.635
21,AACACUGCCAAUACCGGUCCCAAGCCCGGAUAAAAGUGGCGGGGGCGG,0.224
22,AACACUGCCAAUACCGGUCCCAAGCCCGGAUAAAAGUGGUGGGGGCGG,0.209

row,Variant,self-cleavage
1,AACACUGCCAAUAGCGGUCCCAAGCCCGGAUAAAAGUGGAGGGGGCGG,0.551
2,AACACUGCCAAUAUCGGUCCCAAGCCCGGAUAAAAGUGGAGGGGGCGG,0.8
3,AACACUGCCAAUACAGGUCCCAAGCCCGGAUAAAAGUGGAGGGGGCGG,0.46
4,AACACUGCCAAUACCGGUGCCAAGCCCGGAUAAAAGUGGAGGGGGCGG,0.123
5,AACACUGCCAAUACCGGUCACAAGCCCGGAUAAAAGUGGAGGGGGCGG,0.09
6,AACACUGCCAAUACCGGUCGCAAGCCCGGAUAAAAGUGGAGGGGGCGG,0.115
7,AACACUGCCAAUACCGGUCUCAAGCCCGGAUAAAAGUGGAGGGGGCGG,0.262
8,AACACUGCCAAUACCGGUCCAAAGCCCGGAUAAAAGUGGAGGGGGCGG,0.0879
9,AACACUGCCAAUACCGGUCCCAAGACCGGAUAAAAGUGGAGGGGGCGG,0.0972
10,AACACUGCCAAUACCGGUCCCAAGGCCGGAUAAAAGUGGAGGGGGCGG,0.0804
11,AACACUGCCAAUACCGGUCCCAAGUCCGGAUAAAAGUGGAGGGGGCGG,0.387
12,AACACUGCCAAUACCGGUCCCAAGCUCGGAUAAAAGUGGAGGGGGCGG,0.142
13,AACACUGCCAAUACCGGUCCCAAGCCGGGAUAAAAGUGGAGGGGGCGG,0.073
14,AACACUGCCAAUACCGGUCCCAAGCCCGGAUAAAAGUGGAGGGGGAGG,0.715
15,AACACUGCCAAUACCGGUCCCAAGCCCGGAUAAAAGUGGAGGGGGGGG,0.848
16,AACACUGCCAAUACCAGUCCCAAGCCCGGAUAAAAGUGGAGGGGGCGG,0.352
17,AACACUGCCAAUACCCGUCCCAAGCCCGGAUAAAAGUGGAGGGGGCGG,0.106
18,AACACUGCCAAUACCGCUCCCAAGCCCGGAUAAAAGUGGAGGGGGCGG,0.0471
19,AACACUGCCAAUACCGUUCCCAAGCCCGGAUAAAAGUGGAGGGGGCGG,0.108
20,AACACUGCCAAUACCGGUCCCAAGCCCAGAUAAAAGUGGAGGGGGCGG,0.579
21,AACACUGCCAAUACCGGUCCCAAGCCCCGAUAAAAGUGGAGGGGGCGG,0.581
22,AACACUGCCAAUACCGGUCCCAAGCCCUGAUAAAAGUGGAGGGGGCGG,0.623

row,Variant,self-cleavage
1,AACACUGCCAAUACCGGUCCCAAGCCCGGAUAAAACUGGAGGGGGCGG,0.118
2,AACACUGCCAAUACCGGUCCCAAGCCCGGAUAAAAGUUGAGGGGGCGG,0.463
3,AACACUGCCAAUACCGGUCCCAAGCCCGGAUAAAAGUGAAGGGGGCGG,0.202
4,AACACUGCCAAUACCGGUCCCAAGCCCGGAUAAAAGUGUAGGGGGCGG,0.171
5,AACACUGCCAAUACCGGUCCCAAGCCCGGAUAAAAGUGGAAGGGGCGG,0.157
6,AACACUGCCAAUACCGGUCCCAAGCCCGGAUAAAAGUGGACGGGGCGG,0.17
7,AACACUGCCAAUACCGGUCCCAAGCCCGGAUAAAAGUGGAUGGGGCGG,0.131
8,AACACUGCCAAUACCGGUCCCAAGCCCGGAUAAAAGUGGAGAGGGCGG,0.186
9,AACACUGCCAAUACCGGUCCCAAGCCCGGAUAAAAGUGGAGGCGGCGG,0.167
10,AACACUGCCAAUACCGGUCCCAAGCCCGGAUAAAAGUGGAGGUGGCGG,0.182
11,AACACUGCCAAUACCGGUCCCAAGCCCGGAUAAAAGUGGAGGGGCCGG,0.229
12,AACACUGCCAAUACCGGUCCCAAGCCCGGAUAAAAGUGGAGGGGGCUG,0.446
13,AACACUGCCAAUACCGGUCCCAAGCCCGGAUAAAAGUGGAGGGGGCGA,0.659
14,AACACUGCCAAUACCGGCCCCAAGCCCGGAUAAAAGUGGAGGGGGCGG,0.129
15,AACACUGCCAAUACCGGGCCCAAGCCCGGAUAAAAGUGGAGGGGGCGG,0.0757
16,AACACUGCCAAUACCGGUCCCAAGCCCGGAAAAAAGUGGAGGGGGCGG,1.02
17,AACACUGCCAAUACCGGUCCCAAGCCCGGAUAAAAGAGGAGGGGGCGG,0.209
18,AACACUGCCAAUACCGGUCCCAAGCCCGGAUAAAAGCGGAGGGGGCGG,0.183
19,AACACUGCCAAUACCGGUCCCAAGCCCGGAUAAAAGGGGAGGGGGCGG,0.233
20,AACACUGCCAAUCCCGGUCCCGAGCCCGGAUAAAAGUGGAGGGGGCGG,0.103
21,AACACUGCCAAUCCCGGUCCCUAGCCCGGAUAAAAGUGGAGGGGGCGG,0.16
22,AACACUGCCAAUCCCGGUCCCACGCCCGGAUAAAAGUGGAGGGGGCGG,0.0801

row,Variant,self-cleavage
1,AACACUGCCAAUCCCGGUCCCAGGCCCGGAUAAAAGUGGAGGGGGCGG,0.139
2,AACACUGCCAAUCCCGGUCCCAAGCCCGGCUAAAAGUGGAGGGGGCGG,0.518
3,AACACUGCCAAUCCCGGUCCCAAGCCCGGUUAAAAGUGGAGGGGGCGG,0.612
4,AACACUGCCAAUCCCGGUCCCAAGCCCGGAUCAAAGUGGAGGGGGCGG,0.159
5,AACACUGCCAAUCCCGGUCCCAAGCCCGGAUGAAAGUGGAGGGGGCGG,0.255
6,AACACUGCCAAUCCCGGUCCCAAGCCCGGAUACAAGUGGAGGGGGCGG,0.236
7,AACACUGCCAAUCCCGGUCCCAAGCCCGGAUAAACGUGGAGGGGGCGG,0.403
8,AACACUGCCAAUCCCGGUCCCAAGCCCGGAUAAAGGUGGAGGGGGCGG,0.139
9,AACACUGCCAAUCCCGGUCCCAAGCCCGGAUAAAUGUGGAGGGGGCGG,0.629
10,AACACUGCCAAUCCCGGUCCCAAGCCCGGAUAAAAGUGGCGGGGGCGG,0.0965
11,AACACUGCCAAUCGCGGUCCCAAGCCCGGAUAAAAGUGGAGGGGGCGG,0.334
12,AACACUGCCAAUCUCGGUCCCAAGCCCGGAUAAAAGUGGAGGGGGCGG,0.408
13,AACACUGCCAAUCCUGGUCCCAAGCCCGGAUAAAAGUGGAGGGGGCGG,0.0748
14,AACACUGCCAAUCCCGGUACCAAGCCCGGAUAAAAGUGGAGGGGGCGG,0.0574
15,AACACUGCCAAUCCCGGUCACAAGCCCGGAUAAAAGUGGAGGGGGCGG,0.0483
16,AACACUGCCAAUCCCGGUCGCAAGCCCGGAUAAAAGUGGAGGGGGCGG,0.0962
17,AACACUGCCAAUCCCGGUCUCAAGCCCGGAUAAAAGUGGAGGGGGCGG,0.125
18,AACACUGCCAAUCCCGGUCCCAAGACCGGAUAAAAGUGGAGGGGGCGG,0.0747
19,AACACUGCCAAUCCCGGUCCCAAGCACGGAUAAAAGUGGAGGGGGCGG,0.0939
20,AACACUGCCAAUCCCGGUCCCAAGCUCGGAUAAAAGUGGAGGGGGCGG,0.0884
